One may read the Km as the substrate concentration at which the rate is half of its maximum. Broadly, the kcat is the maximal rate divided by the concentration of active sites. For orientation: kcat/Km means the turnover number divided by the Michaelis constant.

Assay in all cases: purified protein
Substrate in data set [1]: CC(C)(COP(=O)(O)OP(=O)(O)OC[C@H]1O[C@@H](n2cnc3c(N)ncnc32)[C@H](O)[C@@H]1OP(=O)(O)O)[C@@H](O)C(=O)NCCC(=O)NCCSC(=O)/C=C/c1ccc(O)cc1
As to conditions: 100 μM agmatine sulphate, 50 mM Tris-HCl pH 7.5, room temperature, apparent Km, acyl-donor.

Substrate in data set [2]: COc1cc(/C=C/C(=O)SCCNC(=O)CCNC(=O)[C@H](O)C(C)(C)COP(=O)(O)OP(=O)(O)OC[C@H]2O[C@@H](n3cnc4c(N)ncnc43)[C@H](O)[C@@H]2OP(=O)(O)O)ccc1O
The following applies: 100 μM agmatine sulphate, 50 mM Tris-HCl pH 7.5, room temperature, apparent Km, acyl-donor.

Substrate in data set [3]: N=C(N)NCCCCN
As to conditions: 100 μM p-coumaroyl-CoA, 50 mM Tris-HCl pH 7.5, room temperature, apparent Km, acyl-acceptor.

Substrate in data set [4]: NCCCCN
As to conditions: 100 μM p-coumaroyl-CoA, 50 mM Tris-HCl pH 7.5, room temperature, apparent Km, acyl-acceptor.

B1: HvACT1 (agmatine coumaroyltransferase, ACT) (Hordeum vulgare) (protein)
chain: MKITVHSSKAVKPEYGACGLAPGCTADVVPLTVLDKANFDTYISVIYAFHAPAPPNAVLEAGLGRALVDYREWAGRLGVDASGGRAILLNDAGARFVEATADVALDSVMPLKPTSEVLSLHPSGDDGPEELMLIQVTRFACGSLVVGFTTQHIVSDGRSTGNFFVAWSQATRGAAIDPVPVHDRASFFHPREPLHVEYEHRGVEFKPCEKAHDVVCGADGDEDEVVVNKVHFSREFISKLKAHASAGAPRPCSTLQCVVAHLWRSMTMARGLDGGETTSVAIAVDGRARMSPQVPDGYTGNVILWARPTTTAGELVTRPVKHAVELISREVARINDGYFKSFIDFANSGAVEKERLVATADAADMVLSPNIEVDSWLRIPFYDMDFGGGRPFFFMPSYLPVEGLLILLPSFLGDGSVDAYVPLFSRDMNTFKNCCYSLD
In the case of B1, the Km in the data set “purified protein [1]” is 1.1 ± 0.12 µM; in “purified protein [2]”, 2.0 ± 0.14 µM; in “purified protein [3]”, 1.7 ± 0.13 µM; in “purified protein [4]” it was 7,200 ± 530 μM. Also, the kcat in “purified protein [1]” worked out at 39 s⁻¹; in “purified protein [2]”, 18 s⁻¹; in the data set “purified protein [3]” it was 38 s⁻¹; in the data set “purified protein [4]”, 4.7 s⁻¹. Also, the kcat/Km in “purified protein [1]” was determined as 3.5e+07 M⁻¹ s⁻¹; in the data set “purified protein [2]” it was 9e+06 M⁻¹ s⁻¹; in the data set “purified protein [3]”, 2.2e+07 M⁻¹ s⁻¹; in “purified protein [4]”, 650 M⁻¹ s⁻¹.

For the origin of these results see paper PMC6123407.
